T1: mouse PD-L2 on CHO-K1 cells over-expressing mPD-L2 GFP (mouse, UniProt Q9WUL5 20-247)
T1 construct: whole, on cells; also called cellular mPD-L2; not shown: GFP of the mPD-L2 GFP construct
T1 sequence (looked up): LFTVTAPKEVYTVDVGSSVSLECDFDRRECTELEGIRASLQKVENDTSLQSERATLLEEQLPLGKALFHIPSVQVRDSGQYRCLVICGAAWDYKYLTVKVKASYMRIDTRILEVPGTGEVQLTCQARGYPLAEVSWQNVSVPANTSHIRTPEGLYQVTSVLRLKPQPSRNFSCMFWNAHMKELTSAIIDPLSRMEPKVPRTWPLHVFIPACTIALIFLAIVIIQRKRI

T2: human PD-L2 on CHO-K1 cells of the Promega PD-1/PD-L2 blockade bioassay (human, UniProt Q9BQ51 20-273)
T2 sequence (looked up): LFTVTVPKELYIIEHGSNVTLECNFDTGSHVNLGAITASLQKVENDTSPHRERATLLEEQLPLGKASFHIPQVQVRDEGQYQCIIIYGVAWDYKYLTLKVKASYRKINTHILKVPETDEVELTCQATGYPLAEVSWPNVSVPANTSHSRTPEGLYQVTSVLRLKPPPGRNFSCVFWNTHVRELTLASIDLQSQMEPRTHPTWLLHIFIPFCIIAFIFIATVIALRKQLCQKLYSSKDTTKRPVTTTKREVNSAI

T3: human PD-L2 on CHO-K1 cells over-expressing hPDL2-GFP (human, UniProt Q9BQ51 20-273)
T3 construct: whole, on cells; also called cellular hPD-L2; cellular PDL2; not shown: GFP of the hPDL2-GFP construct
T3 sequence (looked up): T2 sequence (looked up)

T4: recombinant human PD-L2 (human PD-L2 antigen) (human, UniProt Q9BQ51 20-219, limits assumed)
T4 construct: The Biacore analyte and the ELISA antigen are only called human PD-L2 antigen / recombinant hPD-L2; Whole entry named; also called hPD-L2; recombinant hPD-L2
T4 sequence (looked up): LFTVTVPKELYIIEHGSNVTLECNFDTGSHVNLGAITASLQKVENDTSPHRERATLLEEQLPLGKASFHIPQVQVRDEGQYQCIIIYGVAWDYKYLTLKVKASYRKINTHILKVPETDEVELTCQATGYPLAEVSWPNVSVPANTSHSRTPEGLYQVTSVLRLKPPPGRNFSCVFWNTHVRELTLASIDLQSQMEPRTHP

T5: recombinant mouse PD-L2 (Sino Biological, cat 50804-M08H-B) (mouse, UniProt Q9WUL5 20-219)
T5 construct: Bought protein; also called recombinant mPD-L2; recombinant mPDL2
T5 sequence (looked up): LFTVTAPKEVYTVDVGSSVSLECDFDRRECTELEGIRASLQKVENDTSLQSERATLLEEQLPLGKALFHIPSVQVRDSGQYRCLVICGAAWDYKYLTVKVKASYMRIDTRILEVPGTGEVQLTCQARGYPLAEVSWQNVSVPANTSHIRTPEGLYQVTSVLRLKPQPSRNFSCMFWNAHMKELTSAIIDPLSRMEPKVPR

B1: VH0/VK0 chimeric antibody (hIgG1 backbone) (antibody, V domains shown)
VH: QVQLQQSGAELVRPGTSVKVSCKASGYAFSNYFIEWVKQRPGQGLEWIGLNIPGSGGSNYAEKFKGKATLTADKSSSTAYMQLSSLTSEDSAVYFCARRRLPPDWYFDVWGTGTTVTVSS
VL: DVVMTQTPLSLPVSLGDQASISCRSSQSLVHSDGNTYLHWYLQKPGQSPKLLIYKVSNRFSGVPDRFSGSGSGTDFTLKISRVEAEDLGVYFCSQSTHVPWTFGGGTKLEIK
notes: Mouse variable regions on human IgG1 backbone, expressed in CHO cells; also called chimeric anti-PDL2 lead mAb VH0/VK0
B2: VH8/VK2 (antibody, V domains shown)
VH: QVQLVQSGAEVKKPGSSVKVSCKASGYAFSNYFIEWVKQPPGKGLEWIGLNIPGSGGSNYAEKFKGRATITADKSTSTAYMELSSLRSEDTAVYYCARRRLPPDWYFDVWGQGTTVTVSS
VL: B1 VL with T7S, S14T, D17Q, Q18P, L42Q, S48P, L88V, F92Y, L109V
notes: hIgG1 backbone, CHO expressed
B3: VH0/VK0-mIgG1 (parental murine monoclonal antibody VHP/VKP on mIgG1 backbone) (antibody, V domains shown)
VH: B1 VH
VL: B1 VL
notes: Murine IgG1 backbone; also called parental mouse antibody
B4: VH6/VK3 (antibody, V domains shown)
VH: B2 VH with A28S, A68V
VL: B1 VL with T7S, S14T, D17Q, Q18P, D33G, L42Q, S48P, L88V, L109V
notes: hIgG1 backbone, CHO expressed
B5: VH8/VK1 (antibody, V domains shown)
VH: B2 VH
VL: B1 VL with T7S, S14T, D17Q, Q18P, L42Q, S48P, L88V, L109V
notes: hIgG1 backbone, CHO expressed
B6: VH7/VK2 (antibody, V domains shown)
VH: B2 VH with V11L
VL: B1 VL with T7S, S14T, D17Q, Q18P, L42Q, S48P, L88V, F92Y, L109V
notes: hIgG1 backbone, CHO expressed
B7: VH8/VK3 (antibody, V domains shown)
VH: B2 VH
VL: B1 VL with T7S, S14T, D17Q, Q18P, D33G, L42Q, S48P, L88V, L109V
notes: hIgG1 backbone, CHO expressed
B8: VH6/VK1 (antibody, V domains shown)
VH: B2 VH with A28S, A68V
VL: B1 VL with T7S, S14T, D17Q, Q18P, L42Q, S48P, L88V, L109V
notes: hIgG1 backbone, CHO expressed
B9: VH6/VK2 (antibody, V domains shown)
VH: B2 VH with A28S, A68V
VL: B1 VL with T7S, S14T, D17Q, Q18P, L42Q, S48P, L88V, F92Y, L109V
notes: hIgG1 backbone, CHO expressed

Changes are numbered by the printed parent chain.

In one assay the target is T1, mouse PD-L2 on CHO-K1 cells …. Put plainly: flow cytometry on CHO-K1 cells overexpressing mPD-L2, mean fluorescence. The method, then:
(§1) CHO-K1 cells over-expressing either hPDL2-GFP or mPD-L2 GFP were detached, washed in phosphate buffered saline (PBS) and adjusted to a cell concentration of around 1 million cells in cytometry buffer (CB, PBS containing 1% […]). Around 80,000 cells were then distributed into a round-bottom 96 well plate and the plate was centrifuged for 3 minutes at 400 g at 4° C. and supernatant discarded. Appropriate antibody concentrations in 50 microliter volumes were added to the wells and incubated for 30 minutes at 6-8° C. The plate was washed 3 times with PBS and relevant secondary antibodies (either AlexaFluor 647 Goat anti-Mouse IgG (H+L) (Invitrogen A21235/lot 1915807) or AlexaFluor 647 Goat anti-Rat IgG (H+L) (Invitrogen A21247/lot 1921562) were added for 30 minutes at 4° C. Cells were again washed with PBS two times, resuspended in CB and analyzed in either the Sony ID7000 Spectral Cell analyzer (Sony) or the GALLIOS Flow Cytometer (Beckman-Coulter) was used. EC₅₀ was calculated using the Sigmoidal 4PL equation of the GraphPad Prism-9 software.
Molecule B1 displayed an EC50 of 0.16 nM.
On the same count and under the same terms, to B2 belongs 0.23 nM.

The next assay addresses T2, human PD-L2 on CHO-K1 cells of the …. Put plainly: cell-based or functional assay.
Consider B3, for which the “EC50 (PD-1/PD-L2 blockade reporter assay, luminescence)” value is 1.11 nM.
As to B4, the “EC50 (PD-1/PD-L2 blockade reporter assay, luminescence)” value was found to be 1.11 nM.

Another assay has as its target T3, human PD-L2 on CHO-K1 cells …. Put plainly: flow cytometry blocking assay: antibody titrated against recombinant hPD-1 (constant 15 micrograms/mL) binding to CHO-K1 cells expressing hPD-L2; signal falls with the antibody; column head on the sheet is EC50. The protocol: CHO-K1 cells over-expressing either hPDL2-GFP were detached, washed in phosphate buffered saline (PBS) and adjusted to a cell concentration of around 1 million cells in CB. Around 80,000 cells were then distributed into a round-bottom 96 well plate and the plate was centrifuged for 3 minutes at 400 g at 4° C. and supernatant discarded. A constant concentration of ligand recombinant hPD-1 ligand (Sino Biological 10377-H08H/lot LC13JA2207) of 15 micrograms/mL was incubated with respective concentration of antibody, added to the cells and incubated for 30 min at 6-8° C. Cells were washed 3 times in PBS and then incubated with a rabbit polyclonal anti-His (Abcam Ab1187/lot GR3369369-1) in CB and subsequently washed three times in PBS. Cells were then incubated with a labeled anti-rabbit secondary (AlexaFluor 647 Goat anti-Rabbit IgG (H+L) (Invitrogen A21244/lot 1910774) for 15 minutes at 4° C., washed two times in PBS, resuspended in CB and analyzed in the Sony ID7000 Spectral Cell analyzer (Sony).
Take B3: the EC50 is 0.6 nM.

The next assay shares this target. Put plainly: flow cytometry on CHO-K1 cells expressing hPD-L2, median fluorescence. The protocol: as §1
Molecule B3 came in with an EC50 of 0.538 nM.

In the next assay the target is T4, recombinant human PD-L2 (human PD-L2 …). Put plainly: SPR (Biacore 8K), single cycle kinetics, antibody in culture supernatant, human PD-L2 antigen. The text has this:
Table 2: Single cycle kinetic parameters of chimeric (VH0/VK0) and humanized variants (tested as cell culture supernatants) binding to human PD-L2 antigen as determined using the Biacore 8K. As used herein, the term “KD” is intended to refer to the dissociation equilibrium constant of a particular antibody-antigen interaction, ka is the binding rate constant and kd is the dissociation rate constant. The binding affinity of antibodies of the disclosed invention may be measured or determined by standard antibody-antigen assays. The relative KD was calculated by dividing the KD of the humanized variant by that of the VH0/VK0 assayed in the same experiment.
For B1, the Kd turned out to be 0.0358 nM, the “Relative KD (KD of variant / KD of VH0/VK0)” value was 1, the koff is 9.72e-05 s⁻¹ and the kon is 2.72e+06 M⁻¹ s⁻¹.
For the molecule B5, the Kd stood at 0.053 nM, the “Relative KD (KD of variant / KD of VH0/VK0)” value worked out at 1.48 and the koff was 0.00012 s⁻¹.
Take B6: the Kd came out at 0.0523 nM, the “Relative KD (KD of variant / KD of VH0/VK0)” value was determined as 1.46 and the koff worked out at 0.000118 s⁻¹.
The corresponding values for B2 are 0.0528 nM, 1.47 and 0.000121 s⁻¹.
B7: the Kd came to 0.244 nM, the “Relative KD (KD of variant / KD of VH0/VK0)” value is 6.82 and the koff turned out to be 0.000388 s⁻¹.
For B8 the same measures were 0.0529 nM, 1.48 and 0.000121 s⁻¹.
Regarding B9, the Kd is 0.0588 nM, the “Relative KD (KD of variant / KD of VH0/VK0)” value is 1.64 and the koff came out at 0.000128 s⁻¹.
For B4 the same measures were 0.262 nM, 7.32 and 0.000444 s⁻¹.

A further assay has as its target T2, human PD-L2 on CHO-K1 cells of the …. Description: cell-based or functional assay. This is another data set of the same source.
Consider B1, for which the “EC50 (PD-1/PD-L2 blockade reporter assay, luminescence)” value amounted to 0.64 nM.
Take B6: the “EC50 (PD-1/PD-L2 blockade reporter assay, luminescence)” value came to 0.6 nM.
On the same count and under the same terms, under B2 stands 1.29 nM; under B8, 0.82 nM; under B9, 0.64 nM.
Same read-out and setting: under B4 stands 0.62 nM.

In the next assay the target is T5, recombinant mouse PD-L2 (Sino …). Description: ELISA on recombinant mPD-L2 according to the legend; the y axis on the sheet reads 'Mean fluorescent unit'.
Regarding B3, the “EC50 (read off the curve)” value was about 0.5 nM.

Another assay concerns the target T3, human PD-L2 on CHO-K1 cells …. Put plainly: binding to cellular PDL2 (FIG. 1A by the text; flow cytometry on CHO-K1 cells expressing hPD-L2). The method, then:
as §1
The molecule B3 came in with an EC50 of 0.219 nM.
